{"source": "the DeepSol protein solubility set"}
{"assay": "soluble on expression in E. coli; label from the status in PepcDB or PDB records"}
{"sequence": "PTARRDIRFAWSGDTAGQGWGIDDEGMRTYATMAQHQPDFFIHSGDTIYADGPMKDEVEKDGAVIWKNTTLIDEKRKVAETLAEFRGQWKYNLMDEHVQAMNALCPTFFQWDDHEVVNNWSDAKDLSADDRYTEKSVHVLQSRAARAFHEMTPLRITPAEPGRVYRKISYGPMLDVFFLDLRSYRGPNGASMEDEITDQSRILGAEQLAWIKRELAASTATWKVIASDMPIGLIVWDNWKEKAGAEAISNGDHGPAKGRELEIADLLRFIKSAGVRNTVWFTADVHYTAAHHYSPERAQFQDFDPFWEFVSGPLHAGTFGPNDLDRTFGPEVKFVKAPTPEQGVNLPPSMGLQFFGLVDIDAASQQMKVRLMDRGNTELWSVTLDPVLSAI", "soluble on expression in E. coli": "not soluble"}
{"sequence": "MGSDKIHHHHHHMTTATPLLSLQKPTPIALAEIEESLSQLWANQQHSGAGALVSRAATFSIVVYEPEEFQQILAALGLYHGHLDGLHGPMTRAAIAQAQTQFGLPSTGRPDSATFKALRQAYQALKHSPSLTNQDLRGAVLSNVIATQNPCRIVSLCPTLEGDRPISAEVSAYCPITSAKQASLICCEAVTLRGSQAEMEAIGTFVSELLLPGLPRYVWWKATPNPEQLLFQQLANSCNCMIFDSSYFSDPEAEFLRFQDLIDQETYIADLNWHRLAAWQELTAAAFDPPERRDGLLEVDQLVIDYEKGNPAQALMYMGWIASRLGWQPVSYRCEGGEYDLRQIEFRTEDDRMVKVELAGIPVGDPGLVLGDLIALRLTSENPDADCCTILCSETTGCMRMEAGGGAQSCRTEQVAPPSNETSESLLAMQMQRWGRDALYEESLAVIAVALRQRTHA", "soluble on expression in E. coli": "not soluble"}
{"sequence": "TLAGRIVLVKIEPLSFSEFCKLKGHEVPYEKVAYARDILSPMLMEYIEKGGFPELVWENDPYKIRSYVRSIVIDRIVTRDIPQEFGIR", "soluble on expression in E. coli": "not soluble"}
{"sequence": "MGSDKIHHHHHHTNEDIVKNNVNQPEKVKGNLSLVISSTSNSSRAADNEESGVTDPGIEGESTVTDAVIILNRLDENGNLTKEEFGGYLTKAQLNETTASGETIYNPFFTLANSGWYKVLVVLNPTESIEAIANSQQSTDKSKYEQIAESSYTTTGDITIAAAGQFMMVNKKEIKVDVLSNNYEDPTIKEVEVERVVSKINYVIAKPNNLYPLTVQTTDYAIAETTSGYYIYPDNKAVRLTGLHKAKNLDNDNSDVWIHEGTDGTDRRAFIKTEKTYGQTGEHIFTLLEPFPKFEYYTTSTDGELDWTVKLDKYALVNLSNSVYTARHLTDASWENCKHSASCVFLSKL", "soluble on expression in E. coli": "not soluble"}
{"sequence": "MEEDSIHLPTHLRLQPIYWSRDDVAQWLKWAENEFSLRPIESNKFEMNGKALLLLTKEDFRYRSPHSGDVLYELLQHILKQRKSRMLFSPFFPPGDSIHTKPEVLLHQNHDEDNCVQRTPRTPAESVHHNPPTIELLHRPRSPITTNHRPSPDPEQQRPQRSPLDNMSRRLSPVEKAQGPRLQQENNHQETYPLSVSPVENNHCLPSSPWQESTRVIQLMPSPIMHPLILNPRHSHSVDFKQSRHSEDGMNREGKPINLSHREDLAYLNHIMVSMSPPEEHAMPIGRIADCRLLWDYVYQLLSDSRYENFIRWEDKESKIFRIVDPNGLARLWGNHKNRTNMTYEKMSRALRHYYKLNIIRKEPGQRLLFRFMKTPDEIMSGRTDRLEHLESQVLDEQTYQEDEPTIASPVGWPRGNLPTGTAGGVMEAGELGVAVKEETRE", "soluble on expression in E. coli": "soluble"}
{"sequence": "MSLKRALAALVLLGAVAQAQTGHAGHSVGSVSTGVSMPAMSKQMVSALGPLRGRAFDIKFAQLMMDHHQMALDMAGQELSSGKNAQVRAAAKKVVAAQQQEIALMTGWLRKWTGKVYVPQTLPMVLTGTVNTDRWFLTEMLPHHQGAVDMSKLAAGRSGSSEVKKLALSIIRSQTAEMNTYRQLLKTVKEGHHHHHH", "soluble on expression in E. coli": "soluble"}
{"sequence": "MGSDKIHHHHHHMVKLFREKKDMGSPKIQNFKRQTVLHKGQRTRLPATYIAPEDVSIWDIIRPNLGKDFSRFTVPVFMNEPLSFLQRLSENVQYNYLLEKAAKCSDDMERIEFYEFRFFFNWKKLKHQMKLSNSAHKTGFTFANSINYVAAFALATVSANHKRLSKPFNPLLLETFELERNGVRFLAEQVSHHPPISAVYAESDEFTVEGTVEPTLGFWMTKLLANPHAHLKLTFKKTGETYSWSAPKCAIYNVIMGKMYMNFTSHMKIESSGTYDAVFSFDNKGYYNHKGGDVHVEGHIFEGKNKIKALYGNWTLFLASCDNEDFKHHRKEYLRMFNETVSEKDQGPVVPGSKILWVSNQIPKLFDDQFHFTNFTLSLNEMYPGMSDTVAPTDSRRRKDMKALEDGKNDEAEEFKHKYEEEQRERRTTKTGDVPMWFAKNDEGHWAYKGGYWDRDYSNCLELFESLENSSTNSSNSSISSVD", "soluble on expression in E. coli": "not soluble"}
{"sequence": "MRPRYRASGPSSSPDRTSSQPGSRSMIQCKRVYEPASPADGRRVLVDRLWPRGIRKEALAMDDWLKEVAPSNEVRKQFCHDPALFDSFREHYRAELQAHPEHWWGLLDSAREGTLTLLYGAHDQQHNNAVVLAEFLEEELDRQQPGSSPTCYADRLS", "soluble on expression in E. coli": "not soluble"}
{"sequence": "PELADPTPYDIFGIPKAGSGNPKLDKKSLKKKYHRYVKLYHPDHSDNIQIFSSEKVTNSDSKSPLLLTSSEKLHRFKVISQAYDILCDPKKKIVYDTTRQGW", "soluble on expression in E. coli": "not soluble"}
{"sequence": "SVNAATVDLRIMETTDLHSNMMDFDYYKDAATEKFGLVRTASLIEQARAEVKNSVLVDNGDVIQGSPLGDYMAAKGLKEGDVHPVYKAMNTLNYAVGNLGNHEFNYGLDFLHKALAGAKFPYVNANIIDAKTGKPMFTPYLIQDTRVVDSDGQIHTLRIGYIGFVPPQIMTWDKANLNGKVTVNDITETARKYIPEMRAKGADVVVVVAHSGLSADPYQAMAENSVYYLSQVPGVDAIMFGHAHAVFPGKDFANIKGADIAKGTLNGVPAVMPGMWGDHLGVVDLVLNNDSGKWQVTQSKAEARPIYDAVAKKSLAAEDGKLVSVLKADHDATREFVSK", "soluble on expression in E. coli": "soluble"}
{"sequence": "MGSDKIHHHHHHMDTFHLMKVYIAVAEEQGFSAASRRLNMSAPTVTRAVAHLEETLKVKLLNRTTRYVRMTEAGARYLEDAKRILHDVKVANEAALGINATPQGKISVTAPVLFGQQFVLPTITDYLVRYPQTQVNAVFLDRVVNLLEEGHDVGIRIGELHDSSMRAKKVGNVRLILVASPEYLAKNGIPKNCQELAQHTLIAANTGSLNPDWQFLVNKKNQTIKINPRLTVTTNQAAINAAKNGLGITRIISYQVAEELKNNKLKILLENFEYPAKPINIVHREDKFSSAKVRSFIDLLAENLQTNSALN", "soluble on expression in E. coli": "not soluble"}
{"sequence": "KETVPYQIPYTPSELEELQQNIKLELEGKEQELALELLNYLNEKGFLSKSVEEISDVLRCSVEELEKVRQKVLRLE", "soluble on expression in E. coli": "soluble"}
{"sequence": "MNYGFVKVAAAVPRVKVADCKFNSERLEGLITIAEGKGVQILTFPEMCITGYTCGDLFAQQLLLEQAEMALIQILNSTRQLDIISILGMPVVVNSTVINAAVVIQKGKILGVVPKTYLPNYKEFYEQRWFTSALQVSENSVRLCGQIVPMGNNLLFETAETTFGIEICEDLWATVPPSSSLALQGAEIIFNLSADDEGIGKHNYLCSLISQQSARCISGYVFSSSGFGESTTDVVFAGNGLIYENGYLLARSERFCMEEQLIINEIDVECIRAERRVNTTFAANKANCPGLEHHHHHH", "soluble on expression in E. coli": "not soluble"}
{"sequence": "MGSDKIHHHHHHMKFPRKGIPQEEVMRELEKYTSKDLSFSSGKILGSMCTLPHELAKEVFCMYMDRNLGDPGLHPGTKKIEEEVIEMLSDLLHLERGYGHIVSGGTEANILAVRAFRNLADVENPELILPKSAHFSFIKAGEMLGVKLIWADLNPDYTVDVKDVEAKISENTIGIVGIAGTTGLGVVDDIPALSDLARDYGIPLHVDAAFGGFVIPFAKELGYDLPDFDFKLKGVQSITIDPHKMGMAPIPAGGIVFRHKKYLRAISVLAPYLAGGKIWQATITGTRPGASVLAVWALIKHLGFEGYMEIVDRAMKLSRWFAEEIKKTPGAWLVREPMLNIVSFKTKNLRRVERELKSRGWGISAHRGYIRIVSHASCDGGHD", "soluble on expression in E. coli": "not soluble"}
{"sequence": "LLHGDFELAVPGGPVAAYYAAPAGREQLPIVLVVQEIFGLHEHIKDVCRRLAHDGYLAVSVNLYQRQGDASRYDNIPGLVAELVSKVPDEQVHADLDASLAWAAAHGGDGARVGVTGFCWGGRTTWMYAARNPAVKAGVAWYGRLSSGHGPLIKQVPLDVAGSLHAPVLGLYGGKDESIPLDDVRAMEARLQQGGAPAQASRIVVYPQAGHAFLADYRPSYRAADAQDGWRRMLDWFALYL", "soluble on expression in E. coli": "not soluble"}
{"sequence": "MQLNATFYSGTCPNASAIVRSTIQQALQSDTRIGASLIRLHFHDCFVNGCDASILLDDTGSIQSEKNAGPNVNSARGFNVVDNIKTALENACPGVVSCSDVLALASEASVSLAGGPSWTVLLGRRDSLTANLAGANSSIPSPIESLSNITFKFSAVGLNTNDLVALSGAHTFGRARCGVFNNRLFNFSGTGNPDPTLNSTLLSTLQQLCPQNGSASTITNLDLSTPDAFDNNYFANLQSNDGLLQSDQELFSTTGSSTIAIVTSFASNQTLFFQAFAQSMINMGNISPLTGSNGEIRLDCKKVNGS", "soluble on expression in E. coli": "soluble"}
{"sequence": "MGSDKIHHHHHHMSDLSQRIAELSPEKLKLLVQRLNNKQGEILLRSPIVPQSRELNSFPLSSAQQRLWFIDQLQPGNSAYNISVPMRLGGWLNVAALEQSFKEVVKRHEVLRTTFTVVDGQPLQVIASSLSFTLPVVDLQKLPQNQREAEVLRLASEEAQQPFDLAQGPLLRATLLQLAAAEYALLLTMHHIIADGWAIGVLIREIADLYKAFSVGKPSPLSELSIQYVDFAVWQQQWLQGQLETQLAYWQQQLGSIPVVELPSDFPRSTTQTFSGAREALVLPKTLCDRLKTLNQRQGITLFMVLLAAFGALLNWYTDREDIVVGTDIANRNQAETKALIGFFANQLVLRTNLSKNPTFLELLERVREMTLEAYAHQDLPFDKLVDALNPKRELNRTPLFQVKLVLENTQTPSLELPGLTISSLKIENKTVQFDLLLELNETEQGLFGIWEYSTDLFERDSIVRLSKNFATLLAEVATHPEAKLSELKAVLNQVDKQQHLAKEQVYQNTIQQKLMNVKRRANSRQSTSGNTNHDKN", "soluble on expression in E. coli": "not soluble"}
{"sequence": "PCFALTGPEAGSDAGGIPDQGVVCYGMYDGEEVLGVRVSWNKRYITLAPVATVLGLAFKLQDPDGLLGDKKDVGITCALIPADHDGVEIGERHDPLGSAFMNGPTRGEDVFIPMDWLIGG", "soluble on expression in E. coli": "not soluble"}
{"sequence": "TSHHHHHMKKIEHKMVAVNGLNMHLAELGEGPTILFIHGFPELWYSWRHQMVYLAERGYRAVAPDLRGYGDTTGAPLNDPSKFSILHLVGDVVALLEAIAPNEEKVFVVAHDWGALIAWHLCLFRPDKVKALVNLSVHFSKRNPKMNVVEGLKAIFGEDHYISRFQVPGEIEAEFAPIGAKSVLKKILTYRDPAPFYFPKGKGLEAIPDAPVALSSWLSEEELDYYANKFEQTGFTGAVNYYRALPINWELTAPWTGAQVKVPTKFIVGEFDLVYHIPGAKEYIHNGGFKKDVPLLEEVVVLEGAAHFVSQERPHEISKHIYDFIQKF", "soluble on expression in E. coli": "soluble"}
{"sequence": "MGTFATTYEKIQDFNWLTRFLHAGRYRKLLEVLETVQKDVGNRKVRILDIGCGPGTAVGHILERFDVEYVGIDYDPIFIDAARNRYGKNENCRFIVGDATDERLYETIQADIVIALETLEHIHLNRTVRVIEHVCTIIRPRIFLVTVPVEVGPAVWIKNWGSALMGYNRQSGNLKETFWAGLYRMDRVPAHHTSHQGFDWRCLAQLIRVNAPLREIRSLPFSFVPRLLSPNVALIAEPVKSTIDLANDDPEAWKINHGQTAFQRPHIVDETDAARHAKSLATWSMRLKGLLGMALATMPFAWHRWSYISISPGEAQSSHFLLTIDKHLLPPHQSIEGDTILLAAQAIVQRVSDASYLLT", "soluble on expression in E. coli": "not soluble"}
